Values of other authors in patent US10463717B2, “Compositions in the form of an injectable aqueous solution comprising amylin, an amylin receptor agonist or an amylin analog, and a co-polyamino acid” (ADOCIA, priority 2016, dated 2019).
Where two headings read alike, the source gives them in different places. No end group written: not given here.

| Compound | pH of the solution above which fibrils form (described for the marketed peptide) | Stability of amylin in solution (acidic pH) | Stability of amylin in solution (neutral pH) |
| --- | --- | --- | --- |
| CC[C@H](C)[C@H](NC(=O)[C@@H]1CCCN1C(=O)CNC(=O)[C@H](Cc1ccccc1)NC(=O)[C@H](CC(N)=O)NC(=O)[C@H](CC(N)=O)NC(=O)[C@H](CO)NC(=O)[C@H](CO)NC(=O)[C@H](Cc1c[nH]cn1)NC(=O)[C@@H](NC(=O)[C@H](CC(C)C)NC(=O)[C@H](Cc1ccccc1)NC(=O)[C@H](CC(N)=O)NC(=O)[C@H](C)NC(=O)[C@H](CC(C)C)NC(=O)[C@H](CCCNC(=N)N)NC(=O)[C@H](CCC(N)=O)NC(=O)[C@@H](NC(=O)[C@H](C)NC(=O)[C@@H]1CSSC[C@H](NC(=O)[C@@H](N)CCCCN)C(=O)N[C@@H](CC(N)=O)C(=O)N[C@@H]([C@@H](C)O)C(=O)N[C@@H](C)C(=O)N[C@@H]([C@@H](C)O)C(=O)N1)[C@@H](C)O)C(C)C)C(=O)N[C@@H](CC(C)C)C(=O)N1CCC[C@H]1C(=O)N1CCC[C@H]1C(=O)N[C@H](C(=O)N[C@@H](CC(N)=O)C(=O)N[C@H](C(=O)NCC(=O)N[C@@H](CO)C(=O)N[C@@H](CC(N)=O)C(=O)N[C@H](C(=O)N[C@@H](Cc1ccc(O)cc1)C(N)=O)[C@@H](C)O)C(C)C)[C@@H](C)O [pramlintide, reference compound] | higher than 5.5 | – | – |
| amylin: 37 aminoacids peptide which is co-stored and co-secreted with insulin (KCNTATCATQRLANFLVHSSNNFGAILSSTNVGSNTY; not fully specified (C-terminus, bridges); cysteine pairing not given here; UniProt P10997 34-70, looked up) | – | about fifteen minutes | less than a minute |
